From patent publication US20130052739
Read-outs that look alike come from different tables or passages of the source.

Legend:
[1] = target: T1, FLP recombinase (native yeast) (Saccharomyces cerevisiae) (UniProt P03870); test: cleavage_in_vitro
T1 sequence: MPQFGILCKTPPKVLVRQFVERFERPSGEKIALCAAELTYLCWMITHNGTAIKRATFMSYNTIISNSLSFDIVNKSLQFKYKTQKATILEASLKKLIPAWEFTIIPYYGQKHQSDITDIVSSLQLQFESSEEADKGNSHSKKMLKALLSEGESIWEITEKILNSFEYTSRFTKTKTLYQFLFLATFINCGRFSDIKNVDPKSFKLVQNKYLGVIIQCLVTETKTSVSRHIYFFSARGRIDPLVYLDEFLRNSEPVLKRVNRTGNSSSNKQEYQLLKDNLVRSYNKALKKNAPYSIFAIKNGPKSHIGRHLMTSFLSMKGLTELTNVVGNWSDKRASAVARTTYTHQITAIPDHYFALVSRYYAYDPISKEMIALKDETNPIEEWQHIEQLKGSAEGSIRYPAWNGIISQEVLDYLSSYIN

[2] = target: T1, FLP recombinase (native yeast) (Saccharomyces cerevisiae)

Sequence | activity (% excision efficiency relative to FRT1) ([1]; 30 C, 10 mM MgCl2) | other results
AGTTCCTATACTATACAAAGAATAGGAACT (double strand) [FRT70] | 25 | –
AGTTCCTATACTCCACAGAGAATAGGAACT (double strand) [FRT55] | 7 | –
AGTTCCTATACTCTATGTAGAATAGGAACT (double strand) [FRT12] | 102 | –
AGTTCCTATACTCTCTAGAGAATAGGAACT (double strand) [FRT89] | 39 | –
AGTTCCTATACTCTCTTGAGAATAGGAACT (double strand) [FRT45] | 5 | –
AGTTCCTATACTCTTTTGAGAATAGGAACT (double strand) [FRT5] | 15 | activity (% co-integrants at 2 h) ([2]; in vitro co-integration FRT5+FRT5, 10 mM MgCl2, 5 mM DTT): 0.09
AGTTCCTATACTGAAAAGAGAATAGGAACT (double strand) [FRT78] | 60 | –
AGTTCCTATACTGAGAGAAGAATAGGAACT (double strand) [FRT74] | 5 | –
AGTTCCTATACTGATTGGAGAATAGGAACT (double strand) [FRT65] | 18 | –
AGTTCCTATACTGTAAAAAGAATAGGAACT (double strand) [FRT53] | 64 | –
AGTTCCTATACTGTAATGAGAATAGGAACT (double strand) [FRT34] | 34 | –
AGTTCCTATACTTCCATAAGAATAGGAACT (double strand) [FRT76] | 30 | –
AGTTCCTATACTTCCGAGAGAATAGGAACT (double strand) [FRT43] | 14 | –
AGTTCCTATACTTTAGGTAGAATAGGAACT (double strand) [FRT62] | 72 | –
AGTTCCTATACTTTCTAGAGAATAGGAACT (double strand) [FRT1 (wild-type minimal FRT)] | – | activity (% excision efficiency relative to FRT1) ([1]; reference pair, 25 mM Tris pH 7.5, 10 mM MgCl2, 5 mM DTT, 30 C 30 min): 100; activity (% co-integrants at 2 h) ([2]; in vitro co-integration FRT1+FRT1, 10 mM MgCl2, 5 mM DTT): 1.03
AGTTCCTATACTTTCTCGAGAATAGGAACT (double strand) [FRT86] | 12 | –
AGTTCCTATACTTTCTGGAGAATAGGAACT (double strand) [FRT87] | 93 | –
AGTTCCTATACTTTCTTGAGAATAGGAACT (double strand) [FRT85] | 116 | –
AGTTCCTATACTTTTCTAAGAATAGGAACT (double strand) [FRT57] | 82 | –
AGTTCCTATACTTTTGTGAGAATAGGAACT (double strand) [FRT69] | 9 | –
AGTTCCTATACTTTTTGAAGAATAGGAACT (double strand) [FRT6] | – | activity (% co-integrants at 2 h) ([2]; in vitro co-integration FRT6+FRT6, 10 mM MgCl2, 5 mM DTT): 0.27
